Laboratory results taken from patent US20240287479A1, “GLYCOSYLTRANSFERASE MUTANT, AND METHOD FOR CATALYTIC SYNTHESIS OF REBAUDIOSIDE M USING GLYCOSYLTRANSFERASE MUTANT” (XINGHUA GL STEVIA CO., LTD, priority 2021, published 2024).
Residue numbers refer to the chain shown, from its start. In names and notes the source's numbering stands.

B1: S195Q: UGT76G1 (SEQ ID NO: 1) mutant, position 195 serine to glutamine (protein)
chain: MENKTETTVRRRRRIILFPVPFQGHINPILQLANVLYSKGFSITIFHTNFNKPKTSNYPHFTFRFILDNDPQDERISNLPTHGPLAGMRIPIINEHGADELRRELELLMLASEEDEEVSCLITDALWYFAQSVADSLNLRRLVLMTSSLFNFHAHVSLPQFDELGYLDPDDKTRLEEQASGFPMLKVKDIKSAYQNWQILKEILGKMIKQTKASSGVIWNSFKELEESELETVIREIPAPSFLIPLPKHLTASSSSLLDHDRTVFQWLDQQPPSSVLYVSFGSTSEVDEKDFLEIARGLVDSKQSFLWVVRPGFVKGSTWVEPLPDGFLGERGRIVKWVPQQEVLAHGAIGAFWTHSGWNSTLESVCEGVPMIFSDFGLDQPLNARYMSDVLKVGVYLENGWERGEIANAIRRVMVDEEGEYIRQNARVLKQKADVSLMKGGSSYESLESLVSYISSL
modifications: The sequence is synthetized.
B2: S195Q-StSUS1: recombinase (crude enzyme) from E. coli BL21 (DE3) co-expressing mutant S195Q and sucrose synthase StSUS1 (protein)
chain: B1 chain
B3: L200Y-StSUS1: recombinase (crude enzyme) from E. coli BL21 (DE3) co-expressing mutant L200Y and sucrose synthase StSUS1 (protein)
chain: B1 chain with Q195S, L200Y

Experiments:
Format in all cases: biochemical
[1] = Kinetic parameters of purified glycosyltransferases for rebaudioside E
Description: (§1) Activities of glycosyltransferase mutants and a WT glycosyltransferase were determined. A 3 mL catalytic reaction system was prepared from the following components: 1.2 mM rebaudioside E, 2 mM UDPG, 3 mM MgCl2, crude enzyme: 1 mg, and 100 mM potassium phosphate buffer with a pH of 7.2: the balance. A catalytic reaction was conducted on a shaker at 37° C. and 200 rpm, where a sample was collected at 0 min and 30 min. Sample treatment: 500 μL of a sample solution was pipetted and added to an EP tube; the EP tube was placed in boiling water at 95° C. for 15 min to stop a reaction, and then centrifuged in a centrifuge at 12,000 rpm for 1 min; and a resulting supernatant was collected and added to a new EP tube, filtered through an organic filter membrane (0.45 μm), and stored in a liquid-phase sample bottle for high-performance liquid chromatography (HPLC) analysis. Definition of an enzyme activity (U): an enzyme amount required for producing 1 μmol of a product within 1 min is defined as 1 enzyme activity unit.
(§2) A final concentration of rebaudioside E was set to 10 μM to 2,000 μM or a final concentration of rebaudioside D was set to 50 μM to 2,000 μM. Rebaudioside E or rebaudioside D solutions of different concentrations each were mixed with an appropriate amount of each of the purified WT UGT76G1 and the mutant S195Q, and an enzyme activity was determined according to the enzyme activity assay method described above. A Michaelis Menten equation was used to calculate Kn, Vmax, Keat, and Keat/Km of the purified WT glycosyltransferase and the glycosyltransferase mutant.

[2] = Kinetic parameters of purified glycosyltransferases for rebaudioside D
Description: as §1, §2

[3] = Crude enzyme activity of glycosyltransferase mutants and WT (HPLC); conditions: 1.2 mM rebaudioside E, 2 mM UDPG, crude enzyme 1 mg, 37° C., 30 min
Description: as §1
The four mutant strains S195Q-StSUS1, L200Y-StSUS1, T284S-StSUS1, and S285W-StSUS1 screened out in the above conversion experiment were used to produce glycosyltransferase mutants, and the glycosyltransferase mutants and the WT glycosyltransferase UGT76G1 were tested for activities. […] Thus, the optimal mutant strain S195Q-StSUS1 was screened out.

[4] = Preliminary screening: conversion of RebD by crude recombinases; conditions: 40° C.; for RebD substrate conversion rate relative to UGT76G1-StSUS1: 20 h
Description: (§3) Recombinases were prepared with the mutant strains G87D-StSUS1, S147D-StSUS1, S147N-StSUS1, S195Q-StSUS1, L200Y-StSUS1, T284S-StSUS1, S285W-StSUS1, and G378P-StSUS1 and the WT strain UGT76G1-StSUS1, and then used to convert RebE or RebD to preliminarily screen out relatively-preferred mutants.
The conversion of RebD adopted a 3 mL reaction system including: RebD as a substrate: 1 g/L, sucrose: 3 g/L, crude enzyme: 5 mg/mL, and 100 mM potassium phosphate buffer (pH 7.2): the balance. A RebD conversion reaction was conducted on a shaker at 40° C. and 200 rpm for 6 h and 20 h, and corresponding conversion rates were shown in FIG. 2.

[5] = Preliminary screening: conversion of RebE by crude recombinases; conditions: 40° C., 12 h
Description: as §3
The conversion of RebE adopted a 3 mL reaction system including. RebE as a substrate: 10 g/L, sucrose: 30 g/L, crude enzyme: 5 mg/mL, and 100 mM potassium phosphate buffer (pH 7.2): the balance. A RebE conversion reaction was conducted on a shaker at 40° C. and 200 rpm for 12 h, and corresponding conversion rates were shown in FIG. 1.

[6] = substrate RebE, purified enzyme
[7] = substrate RebD, purified enzyme

| Molecule | Kcat [1, 6] | Km [1, 6] | improvement of catalytic efficiency compared with the WT glycosyltransferase ([1]; substrate rebaudioside E) | Kcat [2, 7] | Km [2, 7] | improvement of affinity compared with the WT glycosyltransferase ([2]; substrate rebaudioside D) | improvement of catalytic efficiency compared with the WT glycosyltransferase ([2]; substrate rebaudioside D) | enzyme activity (in words) [3] | enzyme activity relative to WT glycosyltransferase UGT76G1 [3] | RebD substrate conversion rate relative to UGT76G1-StSUS1 [4] | RebE conversion rate relative to UGT76G1-StSUS1 [5] | catalytic effect on RebD (in words) ([4]; 6 h) |
| --- | --- | --- | --- | --- | --- | --- | --- | --- | --- | --- | --- | --- |
| B1 | 1.48 ± 0.01 s⁻¹ | 56.3 ± 2.02 µM | 2.2 times | 0.25 ± 0.004 s⁻¹ | 214 ± 14.5 µM | 2.2 times | 2.8 times | highest enzyme activity | 1.3 times | – | – | – |
| B2 | – | – | – | – | – | – | – | – | – | 1.3 times | 1.1 times | – |
| B3 | – | – | – | – | – | – | – | – | – | 1.3 times | 1.1 times | optimal catalytic effect |
